Measurements as given in PMC9157467, “A cryptic phosphate-binding pocket on the SPFH domain of human stomatin that regulates a novel fibril-like self-assembly” (Current Research in Structural Biology, 2022).
Substitutions are numbered along the chain they refer to. In names and notes the source's numbering stands.

B1: hSTOM(SPFH)-[R125A] (domain or fragment, human, UniProt P27105 94-202, looked up)
chain: VDMRTISFDIPPQEILTKDSVTISVDGVVYYAVQNATLAVANITNADSATRLLAQTTLRNVLGTKNLSQILSDREEIAHNMQSTLDDATDAWGIKVERVEIKDVKLPVQ
notes: human stomatin (STOM), SPFH domain, residues 94-202, with R125A; Same construct as m1 with one alanine substitution (QuikChange); source: E. coli BL21 (DE3), purified (DEAE Sepharose, Glutathione Sepharose 4 Fast Flow, thrombin cleavage, Superdex 75)
B2: hSTOM(SPFH)-[K188A] (domain or fragment, human, UniProt P27105 94-202, looked up)
chain: B1 chain with A32R, K95A
notes: human stomatin (STOM), SPFH domain, residues 94-202, with K188A; Same construct as m1 with one alanine substitution (QuikChange); source: E. coli BL21 (DE3), purified (DEAE Sepharose, Glutathione Sepharose 4 Fast Flow, thrombin cleavage, Superdex 75)

Target: the molecule itself
Assay: light scattering at 320 nm; lyophilized protein suspended to 400 uM in 50 mM sodium phosphate pH 6.0, 100 mM NaCl or 50 mM bis-Tris/HCl pH 6.0, 100 mM NaCl (mutants also at high phosphate); dissolution followed over time

Protein | binding result
B1 | binds
B2 | binds
